Results reported in US20230303660A1.

Target: human 4-1BB (human) (UniProt Q07011)
Test: cell-based or functional assay

Sequence of human 4-1BB (human) (Q07011 24-255): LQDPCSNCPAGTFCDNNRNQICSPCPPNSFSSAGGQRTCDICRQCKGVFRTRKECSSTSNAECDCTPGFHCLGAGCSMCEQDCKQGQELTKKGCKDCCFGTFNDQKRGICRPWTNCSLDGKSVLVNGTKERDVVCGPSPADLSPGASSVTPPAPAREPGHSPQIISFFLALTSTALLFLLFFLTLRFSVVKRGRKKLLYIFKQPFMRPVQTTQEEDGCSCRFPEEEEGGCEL

“human 4-1BBL expressed on T cell stimulator cells (from UniProt P41273 1-254) (ligand)” gave an NF-κB activation measured through eCFP expression (fold induction) of 2.5 fold.
